Molecular target: GLP-1 receptor on RIN-m5F rat insulinoma cells (Rat) (UniProt P32301)
Assay: cell-based or functional assay

In vitro titer (%): cAMP EC50 in RIN-m5F cells, relative to exendin-4 | Substance
2.6% | Ser12 DA exendin-4(Lys27)-PEG-Fc
2% | DA GLP-1(Lys20, 28)-PEG-Fc
